# Reference: paper PMC6146392 (Metallomics : integrated biometal science, 2018)
# Where two headings read alike, the source gives them in different places.
# T1: H.s. GLRX5 lacking the first 31 amino acids (Δ1-31) (human, UniProt Q86SX6 32-157)
# T1 sequence (looked up): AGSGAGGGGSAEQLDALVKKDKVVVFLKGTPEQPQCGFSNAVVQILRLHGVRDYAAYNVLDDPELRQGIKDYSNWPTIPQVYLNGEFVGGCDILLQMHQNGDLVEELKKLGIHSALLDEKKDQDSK
# B1: human BOLA3 (residues 25-107, lacking the mitochondrial targeting sequence) (natural protein, UniProt Q53S33 25-107, looked up)
# chain: MFATQTEGELRVTQILKEKFPRATAIKVTDISGGCGAMYEIKIESEEFKEKRTVQQHQMVNQALKEEIKEMHGLRIFTSVPKR
# Experiments:
# Assay in all cases: ITC
# [1] = biological target: S.c. Grx3 (residues 36-285, Trx-like and Grx-like domains) (S. cerevisiae)
# [2] = biological target: S.c. Grx3 (residues 36-285, Trx-like and Grx-like domains) (S. cerevisiae); remark: listed apart in the source
# [3] = biological target: T1, H.s. GLRX5 lacking the first 31 amino …
binder,measurement,setting,value
B1,Kd,[1],6.7 µM
same,stoichiometry N,[1],0.94
same,Ka,[2],150000 M⁻¹
same,dH,[2],-0.787 kcal/mol
same,stoichiometry N,[2],0.98
same,Ka,[3],120000 M⁻¹
same,dH,[3],-0.518 ± 0.0342 kcal/mol
same,stoichiometry N,[3],1.02 ± 0.05
